Test results taken from patent publication US7521536B2, “Glutamate transporter associated protein” (The Johns Hopkins University School of Medicine, priority 1999, dated 2009).

Legend:
GTRAP3-18 = assay: retinoic acid regulation of GTRAP3-18 and EAAC1-mediated glutamate transport in HEK293 cells; format: cell-based
Text: Human GTRAP3-18 (JWA protein) was originally identified as a retinoic acid responsive gene. […] The loss of transport activity is not due to changes in EAAC1 protein level (FIG. 9A) or the cellular membrane localization of EAAC1 protein by retinoic acid as examined by fluorescent microscopy. To confirm that loss of transport activity was specifically due to GTRAP3-18 and not by other factors induced by retinoic acid or direct effects on EAAC1, a truncated EAAC1 cDNA, lacking the last 93 amino acids, was constructed. The truncation corresponded to the region used as bait in yeast two-hybrid screening, and was not able to interact with GTRAP3-18. Nevertheless, after transient expression in HEK293 cells, the truncated EAAC1 transported glutamate. […] Thus, the loss of transport activity by retinoic acid was the result of GTRAP3-18 induction. […] This could reflect lack of natural inhibition of the truncated protein EAAC1 by endogenous GTRAP3-18—results similar to the effects of GTRAP3-18 antisense treatment (FIG. 9E).

EAAT4 [1] = assay: EAAT4 protein level after cycloheximide treatment, densitometry, HEK-rEAAT4 cells; format: cell-based, rat; conditions: 12 hrs after cycloheximide, GTRAP coexpressed; HEK-rEAAT4 alone 54±0.6%
Procedure: To examine changes in the cell surface levels of EAAT4, a cell membrane-impermeant biotinylation reagent to label cell surface proteins selectively. Biotinylation of cell surface proteins was performed as described in Duan et al. (Duan, et al., J. Neurosci. 19, 10193-10200 (1999)). SOD1 was used to control for total protein and to determine whether the biotinylation reagent labels proteins in the intracellular compartment. Densitometry was performed using the NIH Image program.
However it is also possible that there is increased expression of the cell's native gene. To address this question cells were treated 48 hrs after transfection with cycloheximide, an inhibitor of protein synthesis. […] In contrast, 81±2% and 74±1.7% of the EAAT4 protein remains after 12 hrs when GTRAP4-41 and GTRAP4-48 are coexpressed, respectively.

EAAT4 [2] = assay: cerebellar glutamate uptake after intra-cisternal injection of HSV amplicon vectors; format: in vivo, rat; conditions: 48 hrs after intra-cisternal injection of HSV amplicon vector, vs control HSVlac
GST-EAAT4 = target: T1, GST-EAAT4 (Rattus norvegicus, UniProt O35921); assay: in vitro binding to GST-EAAT4 fusion protein; conditions: myc-tagged protein from HEK 293T lysate; no binding to GST
T1 construct: Full-length EAAT4 was subcloned into the EcoR I site of the GST-fusion vector pGEX-6P-1 (Pharmacia); made in house; host or cells: E. coli BL21 (Novagen)
T1 sequence (O35921 1-561): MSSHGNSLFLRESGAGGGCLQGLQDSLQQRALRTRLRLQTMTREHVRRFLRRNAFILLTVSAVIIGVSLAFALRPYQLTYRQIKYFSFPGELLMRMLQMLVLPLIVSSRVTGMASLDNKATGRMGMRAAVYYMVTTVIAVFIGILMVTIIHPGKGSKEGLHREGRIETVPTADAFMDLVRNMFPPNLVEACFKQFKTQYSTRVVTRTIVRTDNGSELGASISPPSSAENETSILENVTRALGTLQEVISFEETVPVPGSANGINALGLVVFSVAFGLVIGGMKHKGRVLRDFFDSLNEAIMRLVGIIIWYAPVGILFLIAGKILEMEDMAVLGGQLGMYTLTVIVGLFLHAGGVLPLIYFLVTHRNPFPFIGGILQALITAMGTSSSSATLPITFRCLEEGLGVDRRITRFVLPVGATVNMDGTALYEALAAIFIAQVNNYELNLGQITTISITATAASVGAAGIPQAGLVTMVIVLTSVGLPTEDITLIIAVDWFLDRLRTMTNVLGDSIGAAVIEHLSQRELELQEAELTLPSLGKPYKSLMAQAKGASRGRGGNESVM
Procedure: Fusion proteins and in vitro binding. Full-length EAAT4 was subcloned into the EcoR I site of the GST-fusion vector pGEX-6P-1 (Pharmacia). Synthesis of recombinant proteins in BL21 cells (Novagen) was induced by 0.1 mM isopropyl β-D-thiogalactoside for 2 hrs at 30° C. and purified according to the protocol provided by the manufacturer (Pharmacia). HEK 293T cells were transfected with myc-tagged GTRAP4-41 or GTRAP4-48 and harvested in ice-cold immunoprecipitation (IP) buffer (phosphate buffered saline (pH 7.1), 5 mM EDTA, 1 mM sodium orthovanadate, 0.1 mM phenylmethylsulphonyl fluoride (PMSF), 0.3 μM aprotinin and 1% Triton X-100). The cellular lysate was incubated with GST or GST-EAAT4 immobilized on glutathione-Sepharose-4B, and washed to remove non-specifically bound proteins. Specifically bound proteins were eluted with 2×SDS loading buffer and analyzed by immunoblotting using an anti-c-myc antibody.
GTRAP4-41 and 4-48 Immunoprecipitation with Fusion Proteins. Full-length EAAT4 was subcloned into the EcoR I site of the GST-fusion vector pGEX-6P-1 (Pharmacia). […] Specifically bound proteins were eluted with 3×SDS loading buffer and analyzed by immunoblotting using an anti-c-myc antibody. […]

EAAT4 [3] = target: T2, EAAT4 (Rattus norvegicus, UniProt O35921); assay: Na+-dependent L-[3H]-glutamate uptake in HEK-rEAAT4 cells transfected with GTRAPs; format: cell-based; set-up: expressed in transfected cells
T2 sequence (O35921 1-561): T1 sequence (O35921 1-561)
Procedure: To determine function relationships between GTRAPs and glutamate transporter proteins, sodium-dependent, glutamate transport activity was measured in HEK-rEAAT4 cells transfected with one or more interacting proteins.
To determine the effects of GTRAPs on glutamate transport function, Na+-dependent glutamate transport activity was measured in cells stably transfected with EAAT4, EAAC1, or another glutamate transporter protein and one or more interacter proteins. Stably transfected cells were grown in a monolayer on 6-well plates in MEM supplemented with 10% fetal bovine serum and L-glutamine. Assays were conducted when cells reached ˜80% confluency. The wells were pre-rinsed twice with 2 ml of ice-cold tissue buffer (50 mM Tris, 320 mM sucrose, pH 7.4). The cells were then incubated for 4 min at 37° C. with 1 ml of either sodium-(120 mM NaCl, 25 mM NaHCO3, 5 mM KCl, 2 mM CaCl2, 1 mM KH2PO4, 1 mM MgSO4, 10% glucose and […]) or choline-(120 mM choline Cl, 25 mM Tris-HCl pH 7.4, 5 mM KCl, 2 mM CaCl2, 1 mM KH2PO4, 1 mM MgSO4, 10% glucose and […]) containing buffer labeled with L-[^3H]Glu. Uptake was stopped by rinsing three times with 2 ml of ice-cold wash buffer (50 mM Tris pH 7.5 and 160 mM NaCl). Cells were solubilized in 1 ml of 0.1 N NaOH, and […] of lysate was analyzed for radioactivity in a scintillation counter. Na^+-dependent uptake was defined as the difference in radioactivity accumulated in Na^+-containing buffer and in choline-containing buffer. Protein content was measured and glutamate uptake calculated as nmole glutamate per mg of protein. In some cases, homogenates were examined for EAAT4, GTRAP4-41 and GTRAP 4-48 protein.
In an alternative protocol, HEK-rEAAT4 cells transfected with GTRAP4-41 and GTRAP4-48 were grown in a monolayer on 6-well plates in MEM supplemented with 10% fetal bovine serum and L-glutamine. Assays were conducted about 72 h after transfection using the method of Davis (Davis et al., J Neurosci. 18, 2475-2485 (1998)). […] Glutamate transport was measured by methods described herein.

Rho = target: T3, Rho (Homo sapiens, UniProt P61586); assay: guanine nucleotide exchange assay (GTPγS binding to small G proteins); format: biochemical; conditions: GST-RhoA, GST-Cdc42 and GST-Rac, 10 min at 30° C.
T3 construct: made in house; host or cells: bacterial cells
T3 sequence (P61586 whole entry): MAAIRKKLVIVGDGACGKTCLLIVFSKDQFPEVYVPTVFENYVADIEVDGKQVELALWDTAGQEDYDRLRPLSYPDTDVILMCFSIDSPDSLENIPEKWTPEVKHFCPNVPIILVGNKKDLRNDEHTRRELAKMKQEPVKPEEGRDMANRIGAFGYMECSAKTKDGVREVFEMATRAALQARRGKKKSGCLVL
Procedure: Guanine nucleotide exchange assay. Small G proteins GST-RhoA, GST-CDC42 and GST-Rac were expressed in bacterial cells and affinity purified to ˜80% purity using a glutathione column. Twenty pmoles of each protein were incubated with 100 pmoles GTPγS for 10 min at 30° C. with varying concentrations of full-length GTRAP4-48 or p115. The binding reactions were filtered through BA-85 nitrocellulose and the amount of GTPγS bound to small G protein was quantitated by scintillation counting of the dried filters. The amount of GTPγS that bound to GST-RhoA, GST-Cdc42 and GST-Rac in the presence of full-length GTRAP4-48 or p115 was measured.

Work on `CC1=C(/C=C/C(C)=C/C=C/C(C)=C/C(=O)O)C(C)(C)CCC1` [Retinoic acid, retinoic acid] yielded a non-toxic dose range (GTRAP3-18) of 1 to 10 µM.

“GTRAP4-41: glutamate transporter 4 associated protein, 2,388 amino acids (SEQ ID NO:2), 87% identity with β-spectrin III” was tested, and the EAAT4 protein remaining (EAAT4 [1]) was 81±2%, the cerebellar glutamate uptake (EAAT4 [2]) was “elevated” and the “binding to GST-EAAT4 fusion protein” value (GST-EAAT4) was “bind”. For the same molecule, the Km (EAAT4 [3]; GTRAP co-expressed with EAAT4, EAAT4 alone 7 (GTRAP41 experiment) or 10 (GTRAP48 experiment)) was 11 µM, the “Vmax of glutamate uptake” value (EAAT4 [3]; GTRAP co-expressed with EAAT4, EAAT4 alone 222 (GTRAP41 experiment) or 208 (GTRAP48 experiment)) was 605 pmol/mg/min and the “increase in glutamate transport” value (EAAT4 [3]; HEK-rEAAT4 cells transfected with the GTRAP, vs vector alone) was “two”.

B1: p115: RhoGEF that selectively activates Rho (protein)
chain: MEDFARGAASPGPSRPGLVPVSIIGAEDEDFENELETNSEEQNSQFQSLEQVKRRPAHLMALLQHVALQFEPGPLLCCLHADMLGSLGPKEAKKAFLDFYHSFLEKTAVLRVPVPPNVAFELDRTRADLISEDVQRRFVQEVVQSQQVAVGRQLEDFRSKRLMGMTPWEQELAQLEAWVGRDRASYEARERHVAERLLMHLEEMQHTISTDEEKSAAVVNAIGLYMRHLGVRTKSGDKKSGRNFFRKKVMGNRRSDEPAKTKKGLSSILDAARWNRGEPQVPDFRHLKAEVDAEKPGATDRKGGVGMPSRDRNIGAPGQDTPGVSLHPLSLDSPDREPGADAPLELGDSSPQGPMSLESLAPPESTDEGAETESPEPGDEGEPGRSGLELEPEEPPGWRELVPPDTLHSLPKSQVKRQEVISELLVTEAAHVRMLRVLHDLFFQPMAECLFFPLEELQNIFPSLDELIEVHSLFLDRLMKRRQESGYLIEEIGDVLLARFDGAEGSWFQKISSRFCSRQSFALEQLKAKQRKDPRFCAFVQEAESRPRCRRLQLKDMIPTEMQRLTKYPLLLQSIGQNTEEPTEREKVELAAECCREILHHVNQAVRDMEDLLRLKDYQRRLDLSHLRQSSDPMLSEFKNLDITKKKLVHEGPLTWRVTKDKAVEVHVLLLDDLLLLLQRQDERLLLKSHSRTLTPTPDGKTMLRPVLRLTSAMTREVATDHKAFYVLFTWDQEAQIYELVAQTVSERKNWCALITETAGSLKVPAPASRPKPRPSPSSTREPLLSSSENGNGGRETSPADARTERILSDLLPFCRPGPEGQLAATALRKVLSLKQLLFPAEEDNGAGPPRDGDGVPGGGPLSPARTQEIQENLLSLEETMKQLEELEEEFCRLRPLLSQLGGNSVPQPGCT
With B1 the “guanine nucleotide exchange activity” value (Rho) was “specific guanine nucleotide exchange activity for Rho”.
